The text below walks through data of PMC5773555, “Structural basis of SALM5-induced PTPδ dimerization for synaptic differentiation” (Nature Communications, 2018).

To fix the notation:
B4: human SALM5 LRR-Ig (wild type) (domain or fragment, UniProt Q96NI6 18-374, looked up)
chain: QICPKRCVCQILSPNLATLCAKKGLLFVPPNIDRRTVELRLADNFVTNIKRKDFANMTSLVDLTLSRNTISFITPHAFADLRNLRALHLNSNRLTKITNDMFSGLSNLHHLILNNNQLTLISSTAFDDVFALEELDLSYNNLETIPWDAVEKMVSLHTLSLDHNMIDNIPKGTFSHLHKMTRLDVTSNKLQKLPPDPLFQRAQVLATSGIISPSTFALSFGGNPLHCNCELLWLRRLSREDDLETCASPPLLTGRYFWSIPEEEFLCEPPLITRHTHEMRVLEGQRATLRCKARGDPEPAIHWISPEGKLISNATRSLVYDNGTLDILITTVKDTGAFTCIASNPAGEATQIVDLHI
modifications: N-linked glycans at N73, N330 and N339
notes: SALM5, human, LRR and Ig domains, residues 18-374; Glycans trimmed with Endo H only for crystallization; also called SALM5 LRR-Ig WT; WT; source: BacMam baculovirus-transduced HEK293 GnTI- cells, secreted, purified (Ni-NTA, gel filtration); not shown: His7, C-terminal, kept

Series [1] deals with B4. In words: SPR; Biacore T200, 25 °C; His-tagged SALM5 LRR-Ig immobilised on CM5; His-tagged PTPδ Ig1–3 variants as analytes 2.74-6000 nM; 10 mM HEPES pH 7.4, 150 mM NaCl, 3 mM EDTA, 0.05% P20; 1:1 Langmuir model. The note with it: both partners purified. On the technique in general: In SPR one partner is held on a chip, and binding of the other changes the refractive index at the surface.

Series [2] concerns the molecule itself. In words: crystal structure; SALM5 LRR-Ig in complex with PTPδ Ig1–3 (MeA^−), Endo H trimmed; 3.73 Å; 0.76 M potassium sodium tartrate, 0.1 M MES pH 6.0; molecular replacement.
In series [3] the target is T1, human SALM5 LRR-Ig L327N (human, UniProt Q96NI6 18-374, L327N, introduced N-linked glycan wedge GlcNAc2Man5 (confirmed by mass spectrometry)).
T1 construct: SALM5, human, LRR and Ig domains, residues 18-374, with L327N; source: BacMam baculovirus-transduced HEK293 GnTI- cells, secreted, purified (Ni-NTA, gel filtration); not shown: His7, C-terminal, kept
T1 sequence (looked up): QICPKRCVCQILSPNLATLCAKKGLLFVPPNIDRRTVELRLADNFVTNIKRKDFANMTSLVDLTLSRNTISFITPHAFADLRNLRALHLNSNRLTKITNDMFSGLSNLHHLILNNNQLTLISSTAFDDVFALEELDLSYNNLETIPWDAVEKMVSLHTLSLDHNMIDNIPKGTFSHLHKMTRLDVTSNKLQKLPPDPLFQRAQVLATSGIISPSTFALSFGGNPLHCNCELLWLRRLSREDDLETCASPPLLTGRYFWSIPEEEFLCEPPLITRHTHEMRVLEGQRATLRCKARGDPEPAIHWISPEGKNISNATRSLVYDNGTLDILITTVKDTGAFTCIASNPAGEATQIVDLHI
In words: SPR; Biacore T200, 25 °C; Fc-tagged PTPδ Ig1–3 (MeA^−) amine-coupled to CM5 (about 500 RU); SALM5 LRR-Ig analytes 23.43-1500 nM; 10 mM HEPES pH 7.4, 150 mM NaCl, 3 mM EDTA, 0.05% P20; 1:1 Langmuir model. As to conditions: both partners purified.

In series [4] the target is B4. The series is described as above. As to conditions: both partners purified.
Series [5] concerns the target T2, human SALM5 LRR-Ig R110N/E160S (human, UniProt Q96NI6 18-374, R110N | E160S, N-linked glycans added at residues R110 and N158 (glycan wedge, shown by mass spectrometry)).
T2 construct: SALM5, human, LRR and Ig domains, residues 18-374, with R110N and E160S; also called monomeric SALM5 R110N/E160S mutant; source: BacMam baculovirus-transduced HEK293 GnTI- cells, secreted, purified (Ni-NTA, gel filtration)
T2 sequence (looked up): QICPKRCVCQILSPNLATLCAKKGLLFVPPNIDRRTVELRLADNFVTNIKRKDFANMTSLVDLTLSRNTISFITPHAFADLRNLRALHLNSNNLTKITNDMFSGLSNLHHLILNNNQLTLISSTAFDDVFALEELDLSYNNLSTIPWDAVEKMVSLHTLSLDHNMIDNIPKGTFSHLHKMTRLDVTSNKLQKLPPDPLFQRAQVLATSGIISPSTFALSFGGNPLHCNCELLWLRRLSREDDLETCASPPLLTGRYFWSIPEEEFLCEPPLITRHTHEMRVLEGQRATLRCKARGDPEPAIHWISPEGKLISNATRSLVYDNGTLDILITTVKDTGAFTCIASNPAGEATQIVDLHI
In words: SEC; purified SALM5 and PTPδ mixed, 1 h at 4 °C, Superdex 200 Increase in HBS (10 mM HEPES pH 7.5, 500 mM NaCl). The note with it: both partners purified. (In general: SEC sorts molecules by how far they enter the pores of the column.)

B1: human PTPδ Ig1–3 (MeB^−) (domain or fragment, UniProt P23468 21-320, looked up)
chain: ETPPRFTRTPVDQTGVSGGVASFICQATGDPRPKIVWNKKGKKVSNQRFEVIEFDDGSGSVLRIQPLRTPRDEAIYECVASNNVGEISVSTRLTVLREDQIPRGFPTIDMGPQLKVVERTRTATMLCAASGNPDPEITWFKDFLPVDTSNNNGRIKQLRSESIGGTPIRGALQIEQSEESDQGKYECVATNSAGTRYSAPANLYVRVRRVPPRFSIPPTNHEIMPGGSVNITCVAVGSPMPYVKWMLGAEDLTPEDDMPIGRNVLELNDVRQSANYTCVAMSTLGVIEAIAQITVK
notes: PTPδ, human, Ig domains 1-3, residues 21-320 with the MeB splice insert ELRE 227-230 deleted; Splice code variant lacking mini exon B; also called MeA^+/MeB^−; source: BacMam baculovirus-transduced HEK293 GnTI- cells, secreted, purified (Ni-NTA, gel filtration); not shown: His7, C-terminal, kept
The term Kd denotes the concentration at which binding is half-saturated. A higher Kd goes with weaker binding. B1 came in with a dissociation constant (Kd) in series [1] of 1.78 µM.

B2: human PTPδ Ig1–3 (MeA^−/MeB^−) (domain or fragment, UniProt P23468 21-320, looked up)
chain: ETPPRFTRTPVDQTGVSGGVASFICQATGDPRPKIVWNKKGKKVSNQRFEVIEFDDGSGSVLRIQPLRTPRDEAIYECVASNNVGEISVSTRLTVLREDQIPRGFPTIDMGPQLKVVERTRTATMLCAASGNPDPEITWFKDFLPVDTSNNNGRIKQLRSGALQIEQSEESDQGKYECVATNSAGTRYSAPANLYVRVRRVPPRFSIPPTNHEIMPGGSVNITCVAVGSPMPYVKWMLGAEDLTPEDDMPIGRNVLELNDVRQSANYTCVAMSTLGVIEAIAQITVK
notes: PTPδ, human, Ig domains 1-3, residues 21-320 with both residues 181-189 (MeA) and 227-230 (MeB) deleted; Splice code variant lacking mini exons A and B; source: BacMam baculovirus-transduced HEK293 GnTI- cells, secreted, purified (Ni-NTA, gel filtration); not shown: His7, C-terminal, kept
B2 registered a Kd in series [1] of 1.87 µM.

B3: human PTPδ Ig1–3 WT (domain or fragment, UniProt P23468 21-320, looked up)
chain: ETPPRFTRTPVDQTGVSGGVASFICQATGDPRPKIVWNKKGKKVSNQRFEVIEFDDGSGSVLRIQPLRTPRDEAIYECVASNNVGEISVSTRLTVLREDQIPRGFPTIDMGPQLKVVERTRTATMLCAASGNPDPEITWFKDFLPVDTSNNNGRIKQLRSESIGGTPIRGALQIEQSEESDQGKYECVATNSAGTRYSAPANLYVRELREVRRVPPRFSIPPTNHEIMPGGSVNITCVAVGSPMPYVKWMLGAEDLTPEDDMPIGRNVLELNDVRQSANYTCVAMSTLGVIEAIAQITVK
notes: PTPδ, human, Ig domains 1-3 with MeA and MeB remained; residues 21-320 as stated for its variants; also called MeA^+/MeB^+; source: BacMam baculovirus-transduced HEK293 GnTI- cells, secreted, purified (Ni-NTA, gel filtration); not shown: His7, C-terminal, kept
Consider B3, for which, in series [1], binding was put at a Kd of 0.066 µM. The stoichiometry N is a count of units in the complex or per binding partner. With B4, the “stoichiometry N” value in series [2] was found to be 2.

B5: Fc-tagged human PTPδ Ig1–3 (MeA^−) (Fc fusion, UniProt P23468 21-320, looked up)
chain: ETPPRFTRTPVDQTGVSGGVASFICQATGDPRPKIVWNKKGKKVSNQRFEVIEFDDGSGSVLRIQPLRTPRDEAIYECVASNNVGEISVSTRLTVLREDQIPRGFPTIDMGPQLKVVERTRTATMLCAASGNPDPEITWFKDFLPVDTSNNNGRIKQLRSGALQIEQSEESDQGKYECVATNSAGTRYSAPANLYVRELREVRRVPPRFSIPPTNHEIMPGGSVNITCVAVGSPMPYVKWMLGAEDLTPEDDMPIGRNVLELNDVRQSANYTCVAMSTLGVIEAIAQITVK
notes: BacMam vector with C-terminal human IgG1 Fc plus 7x His-tag; also called PTPδ-Fc; PTPδ Ig1–3 (MeA^−)-Fc; source: BacMam baculovirus-transduced HEK293 GnTI- cells, secreted, purified (Ni-NTA, gel filtration); not shown: Fc (human IgG1), C-terminal, kept
In the case of B5, the results for the dissociation constant Kd in series [3] and in series [4] were 0.145 µM and 0.282 µM, respectively.

B6: human PTPδ Ig1–3 (MeA^−) (domain or fragment, UniProt P23468 21-320, looked up)
chain: ETPPRFTRTPVDQTGVSGGVASFICQATGDPRPKIVWNKKGKKVSNQRFEVIEFDDGSGSVLRIQPLRTPRDEAIYECVASNNVGEISVSTRLTVLREDQIPRGFPTIDMGPQLKVVERTRTATMLCAASGNPDPEITWFKDFLPVDTSNNNGRIKQLRSGALQIEQSEESDQGKYECVATNSAGTRYSAPANLYVRELREVRRVPPRFSIPPTNHEIMPGGSVNITCVAVGSPMPYVKWMLGAEDLTPEDDMPIGRNVLELNDVRQSANYTCVAMSTLGVIEAIAQITVK
notes: Glycans trimmed with Endo H only for crystallization; also called MeA^−/MeB^+; source: BacMam baculovirus-transduced HEK293 GnTI- cells, secreted, purified (Ni-NTA, gel filtration); not shown: His7, C-terminal, kept
Take B6: the binding result in series [5] was “binds”. In series [1], this molecule gave a dissociation constant (Kd) of 0.0999 µM.
